Results: US20120269817A1 (Bayer, published 2012)

T1: human tissue factor pathway inhibitor (TFPI) (human, UniProt P10646 29-304, limits assumed)
T1 construct: Bought protein; also called human TFPI; hTFPI
T1 sequence (looked up): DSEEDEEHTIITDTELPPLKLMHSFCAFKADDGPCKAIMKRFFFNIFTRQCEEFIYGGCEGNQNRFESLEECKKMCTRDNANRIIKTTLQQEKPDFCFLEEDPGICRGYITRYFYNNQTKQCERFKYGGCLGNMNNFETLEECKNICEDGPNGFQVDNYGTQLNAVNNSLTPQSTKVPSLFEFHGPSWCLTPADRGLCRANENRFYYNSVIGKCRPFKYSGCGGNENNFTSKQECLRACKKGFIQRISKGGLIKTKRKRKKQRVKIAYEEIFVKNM

T2: mouse tissue factor pathway inhibitor (TFPI) (mouse, UniProt O54819 29-289, limits assumed)
T2 construct: Bought protein; also called mouse TFPI; mTFPI
T2 sequence (looked up): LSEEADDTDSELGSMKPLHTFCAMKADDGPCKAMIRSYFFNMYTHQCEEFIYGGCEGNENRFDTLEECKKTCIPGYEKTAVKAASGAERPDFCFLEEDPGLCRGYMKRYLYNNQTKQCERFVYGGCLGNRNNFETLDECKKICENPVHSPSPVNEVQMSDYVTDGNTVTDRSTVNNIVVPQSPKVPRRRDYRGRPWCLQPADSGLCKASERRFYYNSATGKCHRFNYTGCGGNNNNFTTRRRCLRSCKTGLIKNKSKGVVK

T3: human TFPI K1 (human, UniProt P10646 29-107, limits assumed)
T3 construct: domain: K1; also called Kunitz domain 1
T3 sequence (looked up): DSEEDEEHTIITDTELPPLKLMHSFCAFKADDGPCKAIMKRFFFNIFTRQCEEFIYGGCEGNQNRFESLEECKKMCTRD


Columns and labels:
[1] = biological target: T1, human tissue factor pathway inhibitor …; experiment: ELISA, IgG on coated human TFPI
[2] = biological target: T2, mouse tissue factor pathway inhibitor …; experiment: ELISA, IgG on coated mouse TFPI
human TFPI K1 = biological target: T3, human TFPI K1; experiment: Western blots and ELISA
Protocol: Western blots and ELISA were used to determine which domain(s) of TFPI of the inhibitory antibodies bind. Recombinant full length human TFPI or TFPI domains were used for these studies. ELISA was similar to Example 3. In the Western Blot, human TFPI or domains were run on 4-12% Bis-Tris SDS PAGE running buffer MES (Invitrogen, Carlsbad, Calif.) and then transferred to cellulose membrane. After incubation with inhibitory antibodies for 10 min, the membrane was washed three times using SNAPid system (Millipore, Billerica, Mass.). A HRP conjugated donkey anti-mouse antibody (Pierce, Rockford, Ill.) at 1 to 10,000 dilution was incubated with the membrane for 10 min. After a similar wash step, the membrane was developed using SuperSignal substrate (Pierce, Rockford, Ill.). Whereas the control anti-Kunitz domain 1 antibody binds to full length TFPI, truncated TFPI and domains, inhibitory anti-TFPI antibodies only bind to TFPI containing Kunitz domain 2.

[3] = biological target: T1, human tissue factor pathway inhibitor …; experiment: ELISA, IgG against Fab
[4] = biological target: T2, mouse tissue factor pathway inhibitor …; experiment: ELISA, IgG against Fab
[5] = biological target: T1, human tissue factor pathway inhibitor …; experiment: Biacore, TFPI on CM5 chip, Fab in mobile phase
Summary of the method: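 Surface plasmon resonance with human or mouse TFPI amine-coupled to a CM5 chip at approximately 300 RU. Purified Fabs were injected in mobile phase at 0.1, 0.4, 1.6, 6.4 and 25 nM. Kinetics and binding affinity were derived from the sensorgrams.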

[6] = biological target: T1, human tissue factor pathway inhibitor …; experiment: cell-based or functional assay
[7] = biological target: T1, human tissue factor pathway inhibitor …; experiment: ELISA, Fab on coated TFPI
Summary of the method: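 Purified Fabs titrated on human or mouse TFPI-coated plates; bound Fab detected with HRP anti-human Fab and AmplexRed/H2O2 to derive EC50. Affinity and kinetics by Biacore: TFPI amine-coupled on CM5 (~300 RU), Fabs in mobile phase at 0.1, 0.4, 1.6, 6.4 and 25 nM.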

[8] = biological target: T2, mouse tissue factor pathway inhibitor …; experiment: ELISA, Fab on coated mouse TFPI
Protocol: To select antibody clones that bind to human TFPI, Fab genes of the phage clones from the second and third round of panning were subcloned into a bacterial expression vector and expressed in E. coli strain TG1. The bacterial lysate was added to the wells of the human TFPI-coated Maxisorp plates. After washing, HRP-conjugated goat anti-human Fab was used as a detection antibody and the plates were developed by adding AmplexRed (Invitrogen) with hydrogen peroxide. A signal of at least five-fold higher than the background was considered as positive. The cross reactivity of the anti-human TFPI antibodies to mouse TFPI was determined by a similar mouse TFPI-binding ELISA. The plates were coated with mouse TFPI (R&D System), BSA and lysozyme. The later two antigens were used as negative controls.

BSA = biological target: T4, BSA (bovine, UniProt P02769 25-607); experiment: ELISA
T4 construct: also called bovine serum albumin
T4 sequence (P02769 25-607 limits assumed): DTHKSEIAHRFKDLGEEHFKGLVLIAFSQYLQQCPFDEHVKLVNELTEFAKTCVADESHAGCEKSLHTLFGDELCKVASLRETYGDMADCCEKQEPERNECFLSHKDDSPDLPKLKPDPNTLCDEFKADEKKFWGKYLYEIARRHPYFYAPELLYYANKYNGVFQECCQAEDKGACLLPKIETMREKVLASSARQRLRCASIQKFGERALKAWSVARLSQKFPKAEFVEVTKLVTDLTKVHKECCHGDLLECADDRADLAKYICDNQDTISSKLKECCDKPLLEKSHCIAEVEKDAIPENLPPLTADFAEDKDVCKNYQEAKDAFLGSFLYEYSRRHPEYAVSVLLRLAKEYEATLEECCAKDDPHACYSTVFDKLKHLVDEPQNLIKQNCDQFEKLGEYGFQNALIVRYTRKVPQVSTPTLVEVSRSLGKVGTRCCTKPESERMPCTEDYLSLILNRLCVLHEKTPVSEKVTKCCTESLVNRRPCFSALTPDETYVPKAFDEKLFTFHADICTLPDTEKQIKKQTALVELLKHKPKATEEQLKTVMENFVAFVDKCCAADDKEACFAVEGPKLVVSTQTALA
Summary of the method: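 Fab from E. coli TG1 lysates bound to plates coated with human TFPI, or with mouse TFPI for cross-reactivity, with BSA and lysozyme as negative controls. Detection by HRP-anti-human Fab with AmplexRed/H2O2; signal ≥5-fold over background scored positive.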

EC50 [1]	EC50 [2]	binding result (human TFPI K1)	fold change of EC50 against 2G6-Fab [3]	fold change of EC50 against 2G6-Fab [4]	Kd [5]	% inhibition of hTFPI activity [6]	dPT in hemoA plasma [6]	EC50 [7]	binding result [8]	binding result (BSA)	Binder
0.22 nM	0.51 nM	no binding	2 fold	10 fold	–	–	–	–	–	–	2G6-IgG (antibody, V domains shown, Chimeric IgG: human variable regions on mouse constant regions, murine IgG1 isotype, made in HKB11 cells; also called IgG-2G6; TP-2G6 chimeric IgG) VH: QVQLQQSGPGLVKPSQTLSLTCAISGDSVSSSSAAWSWIRQSPGRGLEWLGIIYYRSKWYNDYAVSVKSRITINPDTSKNQFSLQLNSVTPEDTAVYYCARHSMVGFDVWGQGTLVTVSS VL: DIVLTQSPATLSLSPGERATLSCRASQYVTSSYLAWYQQKPGQAPRLLIYGSSRATGVPARFSGSGSGTDFTLTISSLEPEDFATYYCQQYSSSPITFGQGTKVEIKR
–	–	–	–	–	32.2 nM	28%	76.5 s	72.5 nM	no binding	no binding	TP-4H8 Fab (Fab, V domains shown, Human Fab from HuCal Gold, expressed in E. coli TG1) VH: QVQLVESGGGLVQPGGSLRLSCAASGFTFSDHAMHWVRQAPGKGLEWVSVIEYSGSKTNYADSVKGRFTISRDNSKNTLYLQMNSLRAEDTAVYYCARGDYYPYLVFAIWGQGTLVTVSS VL: DIELTQPPSVSVAPGQTARISCSGDSIGKKYVHWYQQKPGQAPVLVIYGDNNRPSGIPERFSGSNSGNTATLTISGTQAEDEADYYCSTADSVITYKNVFGGGTKLTVLG
–	–	–	–	–	35.9 nM	29%	71.9 s	36.9 nM	no binding	no binding	TP-4E8 Fab (Fab, V domains shown, Human Fab from HuCal Gold, expressed in E. coli TG1) VH: QVQLVESGGGLVQPGGSLRLSCAASGFTFNDYAMSWVRQAPGKGLEWVSLIESVSSSTYYADSVKGRFTISRDNSKNTLYLQMNSLRAEDTAVYYCARTIGVLWDDVWGQGTLVTVSS VL: DIELTQPPSVSVAPGQTARISCSGDALGSKYVSWYQQKPGQAPVLVIYGDNKRPSGIPERFSGSNSGNTATLTISGTQAEDEADYYCQSYTYSLNQVFGGGTKLTVLG
–	–	–	–	–	2.64 nM	21%	70.9 s	0.4 nM	no binding	no binding	TP-2C1 Fab (Fab, V domains shown, Human Fab from HuCal Gold, expressed in E. coli TG1) VH: QVQLVESGGGLVQPGGSLRLSCAASGFTFSPYVMSWVRQAPGKGLEWVSSISSSSSNTYYADSVKGRFTISRDNSKNTLYLQMNSLRAEDTAVYYCARGDSYMYDVWGQGTLVTVSS VL: DIELTQPPSVSVAPGQTARISCSGDSIGSYYAHWYQQKPGQAPVLVIYYDSKRPSGIPERFSGSNSGNTATLTISGTQAEDEADYYCQAYTGQSISRVFGGGTKLTVLG
